The target of the test is T1, 6×His-SlmA (E. coli), P0C093.
T1 chain: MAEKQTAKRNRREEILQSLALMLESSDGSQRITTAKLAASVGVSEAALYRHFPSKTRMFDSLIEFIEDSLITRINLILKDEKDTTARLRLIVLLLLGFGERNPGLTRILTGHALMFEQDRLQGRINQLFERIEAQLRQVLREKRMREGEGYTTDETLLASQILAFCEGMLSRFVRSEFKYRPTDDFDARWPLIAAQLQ
Description: BLI; biotinylated SBS17-30mer (50 nM) on streptavidin tips, loaded with 4 µM SlmA or SlmA mutant; FtsZ or variants (4 µM, preincubated with 1 mM GDP) or peptides (up to 320 µM) in solution; 1× Pol buffer, room temperature. The following applies: remark: other sources report otherwise.

B1: FtsZ C-terminal tail peptide (Ztail-WT) (peptide)
peptide: DYLDIPAFLRKQAD
B1: the Kd (usually the free concentration of one partner at which half of the binding sites on the other are occupied at equilibrium, for simple one-to-one binding) amounted to 81 µM.
